This is an account of results in paper PMC6265447, “The bacterial Mre11–Rad50 homolog SbcCD cleaves opposing strands of DNA by two chemically distinct nuclease reactions”.

In this data set the target is SbcC;SbcD H84Q (Escherichia coli;Escherichia coli, UniProt P13458;P0AG76 1-1048;1-400, |H84Q). As to the kind of experiment: fluorescence anisotropy; 1 mM ATP, 5 mM Mg2+, 1 mM Mn2+; 25 mM Tris pH 7.5, 50 mM KCl, 5 mM MgCl2, 1 mM MnCl2, 1 mM DTT, 1 mM ATP where stated; 5 nM DNA, 2-1000 nM SbcCD, 20 min at 25 C. The conditions noted are these: protein: recombinant;recombinant; tags: ;C-terminal His6; chain copies: 2;2; label: 5' 6-FAM; blunt. (In fluorescence polarisation assays a small probe gives low polarisation when free and higher when bound to something large.)

For orientation: Kd means the constant that tells how readily two partners part at equilibrium.

B1: 30 bp DNA (dsDNA)
DNA 1: CGCTTTATCAGAAGCCAGACATTAACGCTT
DNA 2: AAGCGTTAATGTCTGGCTTCTGATAAAGCG
As to B1, the Kd is 43 ± 7 nM.

B2: 25 bp DNA (dsDNA)
DNA 1: CGCTTTATCAGAAGCCAGACATTAA
DNA 2: TTAATGTCTGGCTTCTGATAAAGCG
Regarding B2, the Kd came to 146 ± 46 nM.
